According to article PMC6726451 (Science Advances, 2019):

Key:
SEC-MALS = biological target: the molecule itself; assay: SEC-MALS
SEC = biological target: the molecule itself; assay: SEC

B1: caseinolytic protease ClpP from Thermus thermophilus (TtClpP) (enzyme)
chain: not shown
For B1, the “stoichiometry N” value (SEC-MALS) was 14 and the “stoichiometry N” value (SEC) was 7.
